± gives the uncertainty stated by the source.
Assay: amyloid nucleation score (Sup35N fusion, yeast selection) (log enrichment); library NNK1; higher = more nucleation; inactive = no reads after selection
Procedure, shortened: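 Peptides of 20 random codons fused to Sup35N were expressed in psi-negative yeast, induced 24 hours with 100 μM copper sulfate, then grown 7 days at 30°C on medium lacking adenine and uracil. Input and output plasmid inserts were Illumina-sequenced. Nucleation score is the DiMSum log enrichment of output over input reads, centred on the mode score of non-aggregating sequences, excluding sequences with under 100 input reads. Random libraries had three technical output replicates.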

Row | Substance | amyloid nucleation score
1 | IRSEDKITFPGLCKSRLELV | 0.845 ± 0.67
2 | TISGNVSCQKYSRLCVQGLS | 0.449 ± 0.25
3 | VPVWFSTSISQWSNLQ | -1.09 ± 2.4
4 | VLPCSGQA | 0.79 ± 0.26
5 | NMFNDVGDWTFNKGSFTGTV | -0.482 ± 0.41
6 | LPIVGFSCFEFIMIERMRLV | inactive
7 | PTRCQVWLGGTLHVRVVDLS | -0.424 ± 0.4
8 | KDIEYCASMCESCPYMT | 2.86 ± 0.39
9 | FHYLMDYSRLNDIPLEDWGW | -0.411 ± 0.73
10 | LVGSKSGVTRQRMALRWGGF | -0.285 ± 1.4
11 | ASRYGDF | 0.555 ± 0.42
12 | VNLRKEPDNRGLGLDFRLN | 0.001 ± 0.78
13 | LGVVFGRRVHCRLASSVMNM | -0.723 ± 1.5
14 | CSGTICLIIRKLAVILTSQR | inactive
15 | GHSSRLRFT | -0.42 ± 0.48
16 | TFLMCRNACYK | 4.35 ± 0.15
17 | GNVFRLWLNM | 0.369 ± 0.38
18 | ALRNCQNMRPYKTPVRPTVA | 1.34 ± 0.71
19 | VHCHMEITSWLGRRS | 2.8 ± 0.12
20 | ELIIRTRLAVEELLMKACFV | -0.498 ± 0.39
21 | VAKVLKSSCGRYG | -0.573 ± 0.44
22 | TRHFLSIVLLEL | 1.78 ± 0.28
23 | LLESFTG | -0.392 ± 0.46
24 | AGSGMLSKLVLLSRKSMVIT | 1.92 ± 0.21
25 | YRFRWRNWSMWVSHKAHKAS | 0.851 ± 0.74

Row | Substance | amyloid nucleation score
26 | SQCLSKLLSIDISRCWAGQM | 2.59 ± 0.46
27 | ASMPAFAT | 0.413 ± 0.72
28 | EGGSF | 0.059 ± 0.45
29 | GSVAFFNLNMLRVLYIIYER | 0.369 ± 0.36
30 | TTPEAFNSLFAIRGGLLPQR | -0.415 ± 0.47
31 | SYRHSSTSCKFGYVYRFTCL | 1.19 ± 0.41
32 | AISAYELSRIRVQS | 0.487 ± 0.55
33 | YASVIVTQHRTMICRQTLCR | 1.46 ± 0.51
34 | SFAQLMGGAVSHYVFLPWNA | -0.525 ± 0.85
35 | PALWDLCVPKLIVANLIERS | -1.1 ± 1.4
36 | YHLERKGPAFVNFLTMGSCR | -0.908 ± 0.85
37 | TNDTAPVWHTDLMTDWR | -0.079 ± 0.57
38 | NLFSLYGSNFLSP | 1.97 ± 0.14
39 | YFSYSLQKTAARRGVVMFTQ | -0.378 ± 1.4
40 | LYFMSISTMAIRSCGVGLHQ | 0.235 ± 0.37
41 | MDLKTY | -0.696 ± 0.46
42 | SFTGVDHSQLNDFSATNNAS | 0.653 ± 0.55
43 | FILSCISPPYVHCFYCLMFS | 0.854 ± 0.9
44 | LARDYGFD | 0.051 ± 0.3
45 | LAYSNWALSCGIHIFRVTTS | 0.792 ± 0.27
46 | LHQSVMRWLAASWCPQIKLG | 0.338 ± 0.97
47 | QRRHMCCVNAFFRDMRKGIG | 1.63 ± 0.43
48 | MLLFSSVITVMFFGTSIHDG | -0.101 ± 1.2
49 | CAFCI | -0.766 ± 1
50 | FYMGGDCVYNECQGEIRLSL | -0.234 ± 0.7

Row | Substance | amyloid nucleation score
51 | RGSVWATSCRIAKPIVFWGW | inactive
52 | FSHLKYNSVHFIPLRDFDSL | 0.938 ± 0.41
53 | SRAWWVKEFRGVKEVIQVRF | 0.488 ± 0.56
54 | DVSVT | inactive
55 | FKSYCVGLHDYGP | 0.242 ± 0.99
56 | VHNHISP | -0.836 ± 0.37
57 | LFESGSRDFLRQKLTFGTVP | 0.066 ± 0.7
58 | FRKEMIFYS | 1.54 ± 0.47
59 | RVSRLPFDECSFLLVTVEGI | 0.311 ± 0.49
60 | NNHFFMILYINKMVYMILKV | 0.38 ± 0.52
61 | IPTFSKIGKLFYVCGAEFSD | -0.355 ± 0.88
62 | GFKGQRNNAIQVMGKKNRLQ | -0.238 ± 0.59
63 | HWCLMGLCKLFSSARPPLKK | 0.085 ± 0.8
64 | AACGWHRLICNKFSQFTRGP | -0.021 ± 0.75
65 | TIRVQHYCVDRGQESVLMGS | -0.524 ± 0.51
66 | FLCLI | -2.52 ± 2.7
67 | VNVSVDFKREMRIPWLAGIC | -0.651 ± 0.67
68 | TCISTCYD | -0.183 ± 0.9
69 | YVMAESSASNDQAVGNWRGR | -0.643 ± 0.97
70 | AYNAECSVWSRRCSIAVMDL | 0.757 ± 0.58
71 | YSLNFYAMPRSSI | 3.76 ± 0.1
72 | FQYGLGMRVRWKDAMLIRTR | inactive
73 | ILLICYGSCAPNNMVSASTD | -0.959 ± 0.84
74 | LNGTLSCNAISFFIMFA | 0.846 ± 0.44
75 | QECMKLNLAFYWSDCVVRSF | 1.76 ± 0.49

Row | Substance | amyloid nucleation score
76 | VSSRITPS | 1.11 ± 0.39
77 | AGLITSDDMAYWIGILFCNL | 2.57 ± 0.14
78 | QISNRYPLVRPTLLFCGFPF | -0.224 ± 0.4
79 | AFAVSSYWVRGIHRESYGSV | 0.591 ± 0.69
80 | YMVHMK | 0.121 ± 0.76
81 | HASWVRAITWVHQAGTYVML | -0.693 ± 1.3
82 | SNFVALYDRYNCFSVCIYCG | 5.78 ± 0.063
83 | MFGGGWDAKWPPIPCLKKVD | 0.308 ± 0.43
84 | LLNDSINNPQCFIVSSSGHL | -0.541 ± 0.39
85 | HRNSCVPPGVAGIVTVCL | 0.363 ± 0.6
86 | SADKSSFKPFLESTASRVQI | -0.62 ± 1.1
87 | VYLWGPKVYRSDWMGRHFK | 0.855 ± 0.72
88 | GFLIGRSD | 0.022 ± 0.43
89 | AQGVNSFCIEVFHCEGVMDP | -0.003 ± 0.38
90 | FMLERYFQ | -0.157 ± 0.24
91 | WMFIFRLTSTLYYHCC | inactive
92 | YVEVQVIKWVMKSEVHRGAW | 1.27 ± 0.48
93 | SPTIVIKHRLNLESKRGYKV | -0.216 ± 0.44
94 | IMVCN | -0.197 ± 0.42
95 | GTYRRQKMELMYSSLGLFGC | -0.634 ± 0.56
96 | YCKFMLMGNHCFDLFCYSLN | 3.96 ± 0.09
97 | LRTKSLWSF | -0.515 ± 0.59
98 | KRFTRTNILRMTCT | 0.901 ± 0.48
99 | CVYGIGVYR | -0.84 ± 0.95
100 | VMLVVMGLFELFWLSNVV | inactive

Row | Substance | amyloid nucleation score
101 | LWNGIFELAYLTGVYEFRYG | 2.07 ± 0.26
102 | SVWGIILYYWKY | 0.388 ± 0.43
103 | GRMHKLVNCRAFTGLYKGIY | -1.03 ± 0.62
104 | DPGPLARKVGRRIEAAIMVA | 0.992 ± 0.49
105 | CRYTITFLVQKYLLDFFA | -0.074 ± 0.35
106 | GENPGQDYASGFLNVFKNYL | 1.01 ± 0.54
107 | IYGTGFIWMFSVPKLERG | -0.537 ± 1.1
108 | PIFLGLFDDRYMG | 0.116 ± 0.45
109 | DEWCVG | 0.017 ± 0.82
110 | FHLSDGDWYCHVESVTWRAC | 0.375 ± 0.87
111 | PWYDRPRVSYSAFLVWIQLH | -0.417 ± 0.93
112 | DEDNFVRSHVNPLYLTSADD | 0.609 ± 0.83
113 | PSYHSRPRSPYGNIEYKEHR | 0.46 ± 0.36
114 | IGESDNG | -0.63 ± 0.56
115 | ESSIVVGCRGSGWTQDAASQ | -0.465 ± 0.29
116 | MVRGQVNPNSFNARWY | inactive
117 | KLWFVGSLYSGNVQVYVVVP | 4.49 ± 0.061
118 | LTNATFQLWLLCCDGPLRDM | 5.87 ± 0.062
119 | YVSAGRCKYDDLPTRV | 0.133 ± 0.67
120 | LQLIGYRDNWSGVMFYLERG | 0.838 ± 0.55
121 | RVIGE | 1.36 ± 0.49
122 | QDDISLKFLGFGMIVSLIMF | 0.007 ± 0.24
123 | SFIFLILMSAWFPFMRVTFG | 0.198 ± 0.64
124 | NIGMRDTGVLLDKLCQV | -0.594 ± 0.65
125 | VSKSFVSQARLFYIQGDHCL | 1.42 ± 0.73

Row | Substance | amyloid nucleation score
126 | DGICNW | 2.61 ± 0.12
127 | ANADDMLRFRGDF | 0.243 ± 0.44
128 | EVVEWSLTKNCLFHALFIWV | -0.142 ± 0.3
129 | VYACLSHSVRV | 1.05 ± 0.97
130 | IHKDFSLMHILRIHLVGVFS | inactive
131 | GELWLAHLLLRSRVRTHRCP | 5.78 ± 0.068
132 | EIQSSRRKITISMPNRSIVV | 0.333 ± 0.25
133 | RNSDFHFIFWY | 0.865 ± 0.37
134 | SLSTVNRKAV | -0.637 ± 0.57
135 | IFPPFMDFRNCPVMLNC | 0.761 ± 0.2
136 | FYITQTEGQLLLCR | -0.148 ± 0.55
137 | YLDSILYMGLTDLVWQVGTT | -0.334 ± 0.43
138 | GVCVEFCLRGSRFWLMKNKA | 0.383 ± 0.84
139 | NYFAIPCFESWSWRMYKVGF | 0.186 ± 0.9
140 | RVEKCWAMTDKCIRHRFLTS | 0.774 ± 0.48
141 | FGREPIRIKTYQSLKNRSLI | -0.013 ± 0.24
142 | CRSHRGHMCSLVSYLAHGSS | inactive
143 | WMSLIGKNMRMIMVIKKWAL | inactive
144 | YYISLFTEDMSVRRVNQTCF | -2.03 ± 0.96
145 | LYYDSLYCHSFLWYGSLVLS | -0.06 ± 0.38
146 | RCINRGNLAHGGGWCKCKAR | 0.743 ± 0.54
147 | HHAGPSG | 0.72 ± 0.46
148 | AFGMIVLGRSTNGGYCTDGN | 2.83 ± 0.16
149 | VPFLYVG | -0.792 ± 0.62
150 | VQKKRLDGLVKRGLYIRAIG | 1.2 ± 0.69

Row | Substance | amyloid nucleation score
151 | FHVLG | -1.35 ± 2.7
152 | LYRVSLLGRGGNSMMCDMWL | inactive
153 | PLVCRGLLSRCGNPSGKCGR | -0.125 ± 1.7
154 | RNFPWQGFYSTCMMPHF | 0.986 ± 0.6
155 | LMPARLNYERTALSMPKWSE | -0.38 ± 0.63
156 | TFGLRFVYMAHLVVWCADHR | 0.036 ± 0.33
157 | MMLCSYKWVF | 0.1 ± 0.24
158 | EFAYQV | -0.552 ± 1.5
159 | YALKLSMDVGLYLLFEGDRD | -1.36 ± 1.9
160 | NMLGSFPLTVLRKAWCCGSL | 1.04 ± 0.57
161 | TASICSYR | -0.289 ± 0.49
162 | TFVDGGSFSENVVVMIRFYH | 4.99 ± 0.064
163 | NPEILCRLKIPFSSCLDSAS | 0.341 ± 0.61
164 | LSSIATRKHELLNFPV | 0.294 ± 0.63
165 | DGHKGEDSMAKLNFIFRLYS | -0.33 ± 0.38
166 | YTYTQTFLV | -0.255 ± 0.47
167 | EQRKRDHSRASSVSLKRYMG | 0.657 ± 0.53
168 | HVLDRQLSPMDSNSYGCVAT | 0.208 ± 0.28
169 | RCKGNGKNISCSPFQSREWY | 0.026 ± 0.33
170 | GLRALEMSLSES | inactive
171 | TVYSLYVIDALGFLCTNVML | 0.349 ± 0.62
172 | FSSCLTMRLV | -0.365 ± 1.6
